Several values for one entry are separate records, joined by “and”; a condition that tells them apart may be missing. Identical values can stand only once.

Assay [1] addresses amphiphysin clathrin-box peptide clathrin-box peptide (UniProt P49418). The note with it: cited from earlier work.
Assay [2] deals with T1, clathrin N-terminal domain (TD) of the clathrin heavy chain, bovine, residues 1-363 (bovine, UniProt P49951 1-363).
T1 sequence (looked up): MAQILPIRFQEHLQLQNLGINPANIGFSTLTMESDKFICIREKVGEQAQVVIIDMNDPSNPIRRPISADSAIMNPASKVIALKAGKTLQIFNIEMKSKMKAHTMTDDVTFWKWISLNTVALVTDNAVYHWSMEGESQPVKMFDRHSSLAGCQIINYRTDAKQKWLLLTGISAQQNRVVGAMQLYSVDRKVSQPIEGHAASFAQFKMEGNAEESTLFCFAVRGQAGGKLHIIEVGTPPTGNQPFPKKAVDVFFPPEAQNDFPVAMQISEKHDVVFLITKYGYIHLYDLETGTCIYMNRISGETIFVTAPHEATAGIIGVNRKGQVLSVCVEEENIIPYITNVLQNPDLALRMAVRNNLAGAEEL
Description: NMR titration.

Assay [3] has as its target T1, clathrin N-terminal domain (TD) of the …. Put plainly: ITC. For orientation: Isothermal titration calorimetry measures the heat released or taken up as one component is titrated into another.

Sequence of amphiphysin clathrin-box peptide clathrin-box peptide (P49418 whole entry, looked up, the tested form may be a part): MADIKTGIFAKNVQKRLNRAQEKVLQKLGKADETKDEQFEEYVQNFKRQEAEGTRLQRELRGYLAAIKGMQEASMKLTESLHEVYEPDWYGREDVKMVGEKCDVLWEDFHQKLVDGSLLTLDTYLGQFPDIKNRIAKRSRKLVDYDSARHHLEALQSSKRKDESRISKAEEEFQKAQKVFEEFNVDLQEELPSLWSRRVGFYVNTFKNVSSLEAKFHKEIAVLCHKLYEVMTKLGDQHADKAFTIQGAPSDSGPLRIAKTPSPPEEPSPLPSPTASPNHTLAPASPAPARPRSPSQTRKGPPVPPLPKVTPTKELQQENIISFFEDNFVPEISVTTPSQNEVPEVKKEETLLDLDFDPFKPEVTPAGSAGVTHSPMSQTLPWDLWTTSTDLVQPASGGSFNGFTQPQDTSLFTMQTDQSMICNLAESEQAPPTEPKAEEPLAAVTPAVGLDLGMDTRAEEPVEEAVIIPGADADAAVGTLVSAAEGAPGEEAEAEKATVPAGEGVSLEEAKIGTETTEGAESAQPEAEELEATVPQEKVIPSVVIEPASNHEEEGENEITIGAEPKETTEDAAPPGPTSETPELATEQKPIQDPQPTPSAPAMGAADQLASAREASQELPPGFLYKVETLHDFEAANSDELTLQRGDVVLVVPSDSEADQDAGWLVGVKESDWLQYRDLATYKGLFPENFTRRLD

For orientation: Kd means the equilibrium constant for the complex coming apart. Regarding “clathrin heavy chain N-terminal domain (from UniProt P49951)”, in assay [1], the dissociation constant Kd is 22 µM.

By stoichiometry N is commonly meant the number of molecules, sites or subunits per partner or assembly. Consider CSPAKAESSGVIDLFGDAFGSGASETQ [AP180 peptide 1 (residues 627-652 of mouse AP180)], for which, in assay [2], the affinity, expressed as Kd, was 829 ± 221 µM and the “stoichiometry N” value worked out at 3.9 ± 0.3.

For CQVIPSQGDLLGDLLNLDLGPPVNVPQ [AP2 peptide (clathrin-box peptide from the hinge of the AP2 β2 subunit, residues 619-644)], in assay [2], the equilibrium dissociation constant (Kd) was found to be 867 ± 246 µM and the “stoichiometry N” value is 2.6 ± 0.4. In assay [3], the Kd is 420 µM and 474 µM; the dH was -11.7 kJ/mol; the “stoichiometry N” value is 3.01 and 3.

With CPQAVASSSASADLLAGFGGSFMAPS [AP180 peptide 2 (residues 655-679 of mouse AP180)], in assay [2], binding was put at a Kd of 899 ± 529 µM and the “stoichiometry N” value worked out at 3.7 ± 0.6.
